Data on 5 molecules can be found in patent US5800815, “Antibodies to P-selectin and their uses” (Cytel Corporation, dated 1998).

The target in assay [1] is T1, peptide CQNRYTDLVAIQNKNE
T1 peptide: CQNRYTDLVAIQNKNE-NH2
Briefly: indirect: soluble peptide as competitor in ELISA of PB1.3 on affinity purified P-selectin. Here is the method: III. […] Dilutions of mu MAb PB1.3 in DPBS+1% BSA were mixed with either 0.35 mg/ml CQNRYT-[…] (SEQ ID No: 1) in PBS, or as a control, PBS alone. After 1 hr, 50 μl of each antibody dilution was added to the microtiter plate, and incubated for 1 hr. The plate was washed with DPBS, and a 1 to 1000 dilution of sheep anti-mouse IgG horseradish peroxidase conjugate in DPBS+ 1% BSA was added. After 1 hr, the plate was washed, the substrate TMB was added, and the color development was stopped and the plates read as above.

The target of assay [2] is T2, recombinant soluble P-selectin (Homo sapiens (Human), UniProt P16109). Put plainly: competitive ELISA on rsP-selectin; unlabelled PB1.3 against biotinylated PB1.3. Here is the method:
(§1) A 96-well plate (MICROTEST III, FALCON #3912) was coated with 50 μl/well of rsP-selectin (diluted to 2 μg/ml in DPBS) overnight at 4° C. or 90 min at 37° C. The plate was inverted and residual fluid was tapped away.
(§2) The coated plate and an additional blank plate were blocked with 200 µl/well of DPBS+1% bovine serum albumin (BSA, SIGMA #A-7888), for 1 h at room temperature. The blank plate was inverted and the residual blocking fluid was tapped away. The rsP-selectin coated plate was allow to continue blocking during the antibody dilution period. Serially diluted sample antibodies (in DPBS+1% BSA) were added to the blank plate at 50 µl/well. The initial concentrations of the antibodies were 100 µg/ml. Biotinylated-PB1.3 (diluted to 0.3 µg/ml in DPBS+1% BSA) was added to the sample antibodies in the blank plate, 50 µl/well, and mixed by pipetting up and down. The rsP-selectin coated plate was washed three times with DPBS. The sample antibody/biotinylated -PB1.3 mixture was pipetted into the plate coated with rsP-selectin, 50 µl/well, and allowed to incubate for one h at room temperature. The plate was then washed three times with DPBS.
(§3) Streptavidin horse radish peroxidase conjugate (PIERCE #21124) diluted 1:2000 in DPBS+1% BSA was added to the plate, 50 µl/well and allowed to incubate for 1 h at room temperature. The plate was then washed three times with DPBS.

Assay [3] concerns the target P-selectin Δ5CRP (human, UniProt P16109). Put plainly: direct ELISA of COS cell supernatants.
For assay [4], the target named is T2, recombinant soluble P-selectin. Briefly: ELISA on plates coated with rsP-selectin, COS cell supernatants. Here is the method: Media from the transfected COS cells were assayed by ELISA to quantify levels of human antibody produced and analyze capacity to bind to recombinant soluble P-selectin (rsP-selectin). Immulon microtiter plates ([…], #011-010-3355) were coated with 100 μl/well of a solution of goat anti-human IgG (whole molecule, SIGMA #I-1886) to a final concentration of 12.5 μg/ml or a solution of rsP-selectin (1.2 mg/ml) diluted in Dulbecco's phosphate buffered saline (DPBS). Plates were coated overnight at 4° C. or for 2 h at 37° C. The plates were then washed three times with DPBS. The plates were then blocked with 400 μl/well of DPBS+1% bovine serum albumin (BSA, SIGMA, #A-7888) for one h or longer at room temperature. The plates were then washed three times with DPBS.
Serial dilutions of the monoclonal antibodies in DPBS+ 1% BSA were added to the plates (100 μl/well), and the plates were incubated for 1 h at room temperature. The plates were then washed three times with DPBS. 100 μl/well of a second antibody (goat anti-human IgG peroxidase conjugate, SIGMA #A-8867) diluted 1 to 1000 in DPBS+ 1% BSA was added to the plates, and the plates were incubated for one h at room temperature. The plates were then washed three times with DPBS. […] The plates were read at 450 nm in a […] […]

Assay [5] has the same target. Put plainly: competitive ELISA on rsP-selectin; reference unlabelled PB1.3. The protocol: as §1, §2, §3
Assay [6] has the same target. Briefly: competitive ELISA on rsP-selectin; competitor biotinylated PB1.3. Here is the method:
as §1, §2, §3

Substitutions are numbered along the chain they refer to. No end group written: not given here.

B1: mu MAb PB1.3 (antibody, V domains shown)
VH: EAQLQQSGPELVEPGASVKVSCKASGYTFTNYVMHWVKQKPGQGLEWIGFINPSNDGPKYNERFKNKATLTSDKSSSTAYMELSSLTSEVSAVYFCARARPGFDWYFDVWGAGTTVTVSS
VL: DIVMTQSQKFMSTSVGDRVSVTCKASQNVATNVVWYQQRPGQSPKALIYTASYRFSGVPERFSGSGSGTDFTLTITNVQSEDLADYFCQQYNNYPYTFGGGTKVEIQ
As for B1, the binding result in assay [1] is on record as “no binding (tested: 0.35 mg/ml)”; in assay [3], “no binding”. Besides, the concentration for half-maximal inhibition (IC50) in assay [2] turned out to be 1 µg/mL.

B2: reshaped MAb PB1.3, heavy chain CY1748RHA with light chain CY1748RLB (antibody, V domains shown)
VH: EAQLVQSGAEVKKPGASVKVSCKASGYTFTNYVMHWVRQAPGQRLEWMGFINPSNDGPKYNERFKNRVTITSDTSASTAYMELSSLRSEDTAVYYCARARPGFDWYFDVWGQGTLVTVSS
VL: DIQMTQSPSTLSASVGDRVTVTCKASQNVATNVVWYQQKPGEAPKALIYTASYRFSGVPSRFSGSGSGTDFTLTISSLQSDDFATYYCQQYNNYPYTFGQGTKLEIK
B2: in assay [4], the binding result was “binds”.

B3: reshaped MAb PB1.3 (HA/LA), IgG1 isotype (antibody, V domains shown)
VH: B2 VH
VL: B2 VL with S60E
Turning to B3, in assay [5], the “binding relative to PB1.3” value worked out at 50%. Besides, the half-maximal inhibitory concentration (IC50) in assay [6] is 2 µg/mL.

B4: reshaped MAb PB1.3, heavy chain CY1748RHA with light chain CY1748RLC (antibody, V domains shown)
VH: B2 VH
VL: B2 VL with S60E, D70E
As for B4, in assay [4], the binding result is “binds”.

B5: reshaped MAb PB1.3 (HB/LD), IgG4 isotype (antibody, V domains shown)
VH: B2 VH with E1Q, A2V
VL: B2 VL with D70E
Regarding B5, the “binding relative to PB1.3” value in assay [5] is 50%.
